This series has as its system H-NS (Escherichia coli). Put plainly: EMSA. To be noted: apparent Kd; 200 pM DNA; EMSA: H-NS 0-500 nM, 200 pM 32P-labelled DNA, 4% polyacrylamide gel run at 4 C; buffer, salt and pH not stated (as in ref 99).

Regarding GC rich region of pBR322, the Kd was 200 nM.

As for bglG DRE (bglB primer pair), the Kd was 10 nM.
